According to US7659081B2, “Determination of AM-binding proteins and the association of adrenomedullin (AM) therewith” (The United States of America as represented by the …, priority 1999, dated 2010):
Where no end group is shown, it is not given here.

Target: T1, AMBP-1 (factor H) (Homo sapiens, UniProt P08603)
T1 construct: Total proteins derived from human plasma (2 μl) were electrophoretically fractionated; from tissue; host or cells: human plasma
Assay: Ligand blot competition of labeled AM binding to plasma AMBP-1
Details: 7 μM unlabeled peptide, preincubation 6 hr at 4° C.
Protocol: Total proteins derived from human plasma (2 μl) were electrophoretically fractionated on 3-8% Tris-acetate gel (Novex, San Diego, Calif.) under non-reducing conditions. For the ligand blotting experiment, the proteins were transferred to a […] nitrocellulose membrane that was incubated for […] with 1% Nonidet P-40 (NP-40). Non-specific binding was further blocked with a 2 hr incubation in TBS containing 0.1% ATC. Incubations with 70 nM AM labeled with biotin, fluorescein, or DNP were carried out overnight at 4° C. in blocking buffer containing 0.1% TWEEN® 20 nonionic detergent. For biotin detection, the ligand blot was incubated with an avidin-biotin-peroxidase complex and the AEC reagent (Vector Laboratories, Inc., Burlingame, Calif.). For fluorescein and DNP, the ligand blots were incubated 1 hr at room temperature with rabbit anti-fluorescein or anti-DNP IgG, respectively, (1:1000 in incubation buffer; Molecular Probes, Inc.). Anti-rabbit antibody labeled with alkaline phosphatase (1:2000; Dako Corporation, Carpenteira, Calif.) was added for 0.5 hr, and the blot was developed using 4-nitro blue tetrazolium chloride/5-bromo-4-chloro-3-indolyl phosphate (NBT/BCIP) as the color-substrate solution (Roche Molecular Biochemicals, Indianapolis, Ind.).
Following this preincubation, labeled full-length AM was introduced and incubated overnight at 4° C.

T1 sequence (P08603 19-1231): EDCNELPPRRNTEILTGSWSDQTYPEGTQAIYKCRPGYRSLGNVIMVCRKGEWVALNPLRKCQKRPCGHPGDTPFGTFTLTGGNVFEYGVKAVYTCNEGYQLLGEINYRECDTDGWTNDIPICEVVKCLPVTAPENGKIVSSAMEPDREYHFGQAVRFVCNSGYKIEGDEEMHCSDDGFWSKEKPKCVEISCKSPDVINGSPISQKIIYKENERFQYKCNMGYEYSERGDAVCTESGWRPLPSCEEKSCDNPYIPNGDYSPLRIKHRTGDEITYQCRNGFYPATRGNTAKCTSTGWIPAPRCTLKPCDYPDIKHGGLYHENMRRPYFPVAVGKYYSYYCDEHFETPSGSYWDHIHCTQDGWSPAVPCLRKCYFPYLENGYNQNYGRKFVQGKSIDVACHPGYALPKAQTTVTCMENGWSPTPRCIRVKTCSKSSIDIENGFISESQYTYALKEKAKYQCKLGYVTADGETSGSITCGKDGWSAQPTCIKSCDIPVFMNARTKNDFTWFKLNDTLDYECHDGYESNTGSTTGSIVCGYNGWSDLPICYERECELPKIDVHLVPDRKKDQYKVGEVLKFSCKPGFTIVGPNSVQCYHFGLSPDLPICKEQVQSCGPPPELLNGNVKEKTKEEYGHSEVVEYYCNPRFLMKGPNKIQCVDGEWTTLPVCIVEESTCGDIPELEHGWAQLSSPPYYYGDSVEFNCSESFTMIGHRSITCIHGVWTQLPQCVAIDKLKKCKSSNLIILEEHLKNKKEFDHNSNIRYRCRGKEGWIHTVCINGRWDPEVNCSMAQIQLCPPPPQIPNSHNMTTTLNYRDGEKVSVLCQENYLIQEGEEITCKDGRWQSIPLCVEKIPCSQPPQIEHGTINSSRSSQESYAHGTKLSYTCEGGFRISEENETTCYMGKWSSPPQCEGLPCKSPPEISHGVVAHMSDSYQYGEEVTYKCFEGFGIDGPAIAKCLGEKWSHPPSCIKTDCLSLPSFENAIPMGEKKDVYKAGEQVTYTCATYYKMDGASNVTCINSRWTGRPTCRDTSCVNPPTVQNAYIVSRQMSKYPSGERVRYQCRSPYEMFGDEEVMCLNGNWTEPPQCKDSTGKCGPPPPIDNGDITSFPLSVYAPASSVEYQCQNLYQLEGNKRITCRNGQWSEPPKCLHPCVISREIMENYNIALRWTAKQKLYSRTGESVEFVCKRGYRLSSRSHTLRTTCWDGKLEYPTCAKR

Compound	Competition for labeled AM/AMBP-1 complex on ligand blot
AM1-12: AM truncated polypeptide (YRQSMNNFQGLR)	only full-length AM was able to dissociate
AM13-52: AM truncated polypeptide	only full-length AM was able to dissociate
AM16-21: AM truncated polypeptide (CRFGTC)	only full-length AM was able to dissociate
AM22-52: AM truncated polypeptide	only full-length AM was able to dissociate
AM34-52: AM truncated polypeptide (TDKDKDNVAPRSKISPQGY)	only full-length AM was able to dissociate
amylin (KCNTATCATQRLANFLVHSSNNFGAILSSTNVGSNTY; not fully specified (C-terminus, bridges); cysteine pairing not given here; UniProt P10997 34-70, looked up)	only full-length AM was able to dissociate
calcitonin gene-related peptides [CGRP]	only full-length AM was able to dissociate
insulin-like growth factor [IGF-1]	only full-length AM was able to dissociate
proadrenomedullin N-terminal 20 peptide (ARLDVASEFRKKWNKWALSR) [PAMP]	only full-length AM was able to dissociate

System: not listed separately
Assay: Storage of non-radioactively labeled AM
Assay type: physicochemical
Details: stored at 4° C. for as long as 3 months
Protocol: Non-radioactive labeling of AM was accomplished by conjugating synthetic AM comprising amino acids 1-52 (Phoenix Pharmaceuticals, Inc., Mountainview, Calif.) with succinimidyl esters linked to biotin (Pierce Chemical Co., Rockford, Ill.), fluorescein (Molecular Probes, Inc., Eugene, Oreg.), or dinitrophenol (DNP; Molecular Probes, Inc.). Briefly, 100 μg of AM (16 μM) was dissolved in 1 ml of 50 mM sodium bicarbonate, pH 8.5, and the succinimidyl ester was added to yield a final molar concentration of 10:1 (linker:AM). The mixture was incubated with slow agitation for 1 hr at room temperature and the reaction was terminated by the addition of 0.1 M ethanolamine followed by another incubation for 1 hr. Unincorporated ligand was removed by extracting the AM using reverse phase SEP-PAK® C-18 solid-phase extraction cartridges (Waters, Milford, Mass.) and eluting the sample with acidic-isopropanol. The extract was lyophilized and reconstituted in 1 ml of TBS (0.05 M Tris-HCl, 0.15 M NaCl), 0.1% alkali-treated casein (ATC), 0.1% TWEEN® 20 nonionic detergent, and 0.05% TRITON® X-100 nonionic detergent, pH 7.4.

Compound	Storage stability (activity)
Labeled AM: synthetic AM 1-52 conjugated via succinimidyl esters to biotin, fluorescein or dinitrophenol	without significant loss of activity

Target: AM/fH complex (Homo sapiens, UniProt P08603)
Sequence (P08603 19-1231, one chain of several): as the sequence (P08603 19-1231) above
Assay: not given
Details: 3M NaSCN
Protocol: (§1) Alternatively, the AM/fH interaction was analyzed using a multi-well assay. In accordance with this assay, a 96-well polyvinylchloride (PVC) plate was coated with factor H (5 ng/well, Sigma, St. Louis, Mo.). The plate was blocked with a solution containing TBS, 0.1% ATC, and 0.1% TWEEN® 20 nonionic detergent, and then incubated with fluorescein-labeled AM (50 nM) for 2 hr. Prior to the development of the assay, the wells were incubated for various time periods with PBS or 3M NaSCN pH 7.4. Following this, the plate was washed and incubated with anti-fluorescein polyclonal antibody (1:1000, Molecular Probes) and ^125I-Protein A (Amersham Pharmacia Biotech). Radioactivity was determined using a gamma counter. FIG. 6B.

Compound	Dissociation of AM/fH complex
N#C[S-].[Na+] [NaSCN, sodium thiocyanate]	dissociated

Target: factor H (Homo sapiens, UniProt P08603)
Sequence (P08603 19-1231): as the sequence (P08603 19-1231) above
Assay: Multi-well plate competition of fluorescein-labeled AM binding to factor H
Design: purchased Sigma
Details: 50 nM fluorescein-labeled AM; factor H 5 ng/well; increasing concentrations of unlabeled competitor
Protocol: Lane 1: horseradish peroxidase (5 μg), a glycosylated protein used as positive control; Lane 2: soybean trypsin inhibitor (5 μg), a non-glycosylated protein used as negative control; Lane 3: AMBP-1 (2 μg). […] Lane 1: isoelectric focusing markers; Lane 2: AMBP-1 (4 μg). […] Lane 1: AMBP-1 (100 ng); Lane 2: AMBP-1 (200 ng); Lane 3: commercially available human factor H (50 ng); Lane 4: human plasma (0.2 μl). […] Results represent one of two independent experiments. Values represent mean and standard deviation of three determinations. “B/B0” indicates the ratio of signals generated in the presence/absence of unlabeled competitor.
as §1

Effect on binding of fluorescein-labeled AM to factor H-coated plate	Compound
not affected	calcitonin gene-related peptides [CGRP]
not affected	proadrenomedullin N-terminal 20 peptide (ARLDVASEFRKKWNKWALSR) [PAMP]
